Test results from paper PMC8571081.
pKd: −log10 of the molar value.

Key:
[1] = molecular target: Recombinant mouse IL-12Rβ2-Fc chimera protein (mouse) (UniProt P97378); test: SPR; IL-23R-Fc and IL-12Rβ2-Fc captured on a Protein A chip (~150 RU); HIL-12 (0.3-5 nM) or HIL-23 (15-1000 nM) variants injected at 30 μl/min; 25 °C, PBS pH 7.4, 0.05% P20; multi-cycle; 1:1 binding model; Biacore X100
[2] = molecular target: Recombinant mouse IL-23R-Fc chimera protein (mouse) (UniProt Q8K4B4); test: as above
Chain of UniProt Q8K4B4 (Q8K4B4 24-374, change not shown): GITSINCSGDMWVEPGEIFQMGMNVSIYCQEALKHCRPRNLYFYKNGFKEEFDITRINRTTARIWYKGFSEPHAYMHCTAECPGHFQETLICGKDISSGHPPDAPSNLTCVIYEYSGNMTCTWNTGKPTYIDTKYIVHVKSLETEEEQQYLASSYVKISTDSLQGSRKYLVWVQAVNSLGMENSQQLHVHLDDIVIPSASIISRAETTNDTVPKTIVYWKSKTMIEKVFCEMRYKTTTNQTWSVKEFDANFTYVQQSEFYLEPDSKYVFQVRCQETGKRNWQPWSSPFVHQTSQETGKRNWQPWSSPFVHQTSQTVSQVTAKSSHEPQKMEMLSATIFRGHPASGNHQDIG

Chain of UniProt P97378 (P97378 24-637, stated change not applied): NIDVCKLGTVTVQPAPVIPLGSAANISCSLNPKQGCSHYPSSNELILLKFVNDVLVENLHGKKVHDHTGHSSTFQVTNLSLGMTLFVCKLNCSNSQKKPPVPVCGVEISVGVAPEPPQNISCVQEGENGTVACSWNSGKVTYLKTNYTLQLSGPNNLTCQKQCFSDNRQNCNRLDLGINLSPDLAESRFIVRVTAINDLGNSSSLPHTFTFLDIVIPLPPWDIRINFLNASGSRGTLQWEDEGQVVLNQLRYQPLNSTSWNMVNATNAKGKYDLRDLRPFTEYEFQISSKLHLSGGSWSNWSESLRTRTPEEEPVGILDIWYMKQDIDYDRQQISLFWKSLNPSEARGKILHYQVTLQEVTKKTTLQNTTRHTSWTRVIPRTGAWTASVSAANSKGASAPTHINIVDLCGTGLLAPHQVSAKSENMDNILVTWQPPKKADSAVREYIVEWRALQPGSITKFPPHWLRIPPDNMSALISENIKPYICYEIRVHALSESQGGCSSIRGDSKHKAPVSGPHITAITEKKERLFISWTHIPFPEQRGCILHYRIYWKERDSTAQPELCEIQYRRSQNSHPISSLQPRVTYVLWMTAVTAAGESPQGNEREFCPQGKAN

Substance “HIL-12D36K/W37K/T38K, purified with Twin-Strep-tag (ligand)” has a pKd [1] of 9.08, a koff [1] of 0.0027 s⁻¹ and a kon [1] of 3.2e+06 M⁻¹ s⁻¹.
“HIL-23D36K/W37K/T38K, purified with Twin-Strep-tag (from UniProt P43432 23-335) (ligand)” showed a pKd [2] of 7.24, a koff [2] of 0.0011 s⁻¹ and a kon [2] of 19000 M⁻¹ s⁻¹.
For “murine Hyper-IL-12 (HIL-12), purified with Twin-Strep-tag (ligand)”, the pKd [1] was 9.01, the koff [1] was 0.0019 s⁻¹ and the kon [1] was 1.9e+06 M⁻¹ s⁻¹.
In the case of “murine Hyper-IL-23 (HIL-23), purified with Twin-Strep-tag (from UniProt P43432 23-335) (ligand)”, the pKd [2] was 7.40, the koff [2] was 0.0012 s⁻¹ and the kon [2] was 30000 M⁻¹ s⁻¹.
